Consider ten molecules from PMC3958483 (PLoS ONE, 2014).

What all share (conditions): both partners purified
The target of experiment [1] is T1, PLCγ2 SH2-SH2-SH3 (tandem SH2 domains plus the SH3 domain of PLCγ2) (human, UniProt P16885 519-838).
T1 construct: PLCγ2, human, tandem SH2 domains plus SH3 domain, aa 519–838; Printed MW = 42415 of the recombinant protein; also called recombinant PLCγ2 SH2 domains; source: E. coli BL21(DE3)pLysS, purified (Co2+ or Ni2+ column, size exclusion chromatography, same day as SPR)
T1 sequence: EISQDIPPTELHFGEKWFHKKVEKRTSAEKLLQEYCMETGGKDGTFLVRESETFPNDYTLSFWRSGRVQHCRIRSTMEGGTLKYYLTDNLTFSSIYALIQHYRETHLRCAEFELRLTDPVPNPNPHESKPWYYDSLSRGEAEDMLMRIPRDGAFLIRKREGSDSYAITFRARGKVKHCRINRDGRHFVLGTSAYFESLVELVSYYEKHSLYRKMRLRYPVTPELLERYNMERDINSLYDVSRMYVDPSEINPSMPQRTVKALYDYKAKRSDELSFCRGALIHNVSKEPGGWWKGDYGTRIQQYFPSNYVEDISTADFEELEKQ
As to the kind of experiment: SPR; biotinylated phosphopeptides immobilised on streptavidin chip (about 25 RU single motifs); soluble recombinant protein injected in two-fold dilutions; 37°C; HBS-EP (10 mM HEPES pH 7.4, 150 mM NaCl, 3.4 mM EDTA, 0.005% P20); equilibrium binding, one-site model; proteins purified on the same day as SPR (Tables 1 and 6). (Surface plasmon resonance follows binding to a sensor surface in real time, without labels.)

The target of experiment [2] is T2, PLCγ1 SH2-SH2-SH3 (tandem SH2 domains plus the SH3 domain of PLCγ1) (human, UniProt P19174 536-863).
T2 construct: PLCγ1, human, tandem SH2 domains plus SH3 domain, aa 536–863; Printed MW = 42531 of the recombinant protein; also called recombinant PLCγ1; source: E. coli BL21(DE3)pLysS, purified (Co2+ or Ni2+ column, size exclusion chromatography, same day as SPR)
T2 sequence: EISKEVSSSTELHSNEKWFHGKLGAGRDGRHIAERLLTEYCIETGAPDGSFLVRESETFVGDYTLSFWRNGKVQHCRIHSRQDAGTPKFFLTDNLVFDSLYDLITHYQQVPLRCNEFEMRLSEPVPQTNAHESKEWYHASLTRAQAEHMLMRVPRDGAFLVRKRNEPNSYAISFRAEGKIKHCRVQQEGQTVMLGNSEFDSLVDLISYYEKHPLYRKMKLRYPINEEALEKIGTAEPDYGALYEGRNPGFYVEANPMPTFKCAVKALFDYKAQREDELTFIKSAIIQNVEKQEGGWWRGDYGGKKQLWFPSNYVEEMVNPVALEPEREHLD
Described as above.

The target in experiment [3] is T3, SHP-2 N-terminal + C-terminal (N+C) SH2 domains (human, UniProt Q06124 2-219).
T3 construct: SHP-2, human, N-terminal + C-terminal SH2 domains, aa 2–219; also called SHP-2 (SH2-SH2); SHP2 N+C SH2; source: E. coli BL21(DE3)pLysS, purified (Oxford Protein Production Facility / in house; size exclusion chromatography)
T3 sequence (looked up): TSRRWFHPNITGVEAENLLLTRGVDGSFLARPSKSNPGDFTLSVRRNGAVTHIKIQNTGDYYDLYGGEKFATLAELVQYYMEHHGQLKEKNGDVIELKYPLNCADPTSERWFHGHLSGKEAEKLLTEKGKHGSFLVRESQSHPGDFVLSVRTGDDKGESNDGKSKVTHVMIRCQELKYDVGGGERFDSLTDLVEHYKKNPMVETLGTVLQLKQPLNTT
As to the kind of experiment: SPR; biotinylated phosphopeptides immobilised on streptavidin chip (about 25 RU single, 50 RU tandem motifs); soluble recombinant protein injected; 37°C; HBS-EP; equilibrium binding (Table 4; same-day purification not given).

In experiment [4] the target is T4, SHIP SH2 (SH2 domain from human SHIP-1) (human, UniProt Q92835 5-101).
T4 construct: SHIP-1, human, single SH2 domain; also called hSHIP SH2; SHIP-1 SH2 domain; source: E. coli BL21(DE3)pLysS, purified (Co2+ or Ni2+ column, size exclusion chromatography)
T4 sequence (looked up): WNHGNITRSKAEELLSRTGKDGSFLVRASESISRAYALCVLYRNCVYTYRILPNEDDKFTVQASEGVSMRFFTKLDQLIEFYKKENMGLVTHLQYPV
The description is as above.

For experiment [5], the target named is T5, EAT-2 (recombinant full-length human EAT-2) (human, UniProt O14796 1-132).
T5 construct: EAT-2, human, full length; source: E. coli BL21(DE3)pLysS, purified (Co2+ or Ni2+ column, size exclusion chromatography)
T5 sequence (looked up): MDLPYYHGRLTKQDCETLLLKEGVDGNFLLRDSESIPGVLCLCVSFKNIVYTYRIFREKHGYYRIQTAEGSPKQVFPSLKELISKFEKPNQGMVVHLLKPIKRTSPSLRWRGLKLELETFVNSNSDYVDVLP
The experiment is described as above.

Experiment [6] addresses T5, EAT-2 (recombinant full-length human …). The experiment can be described thus: SPR; biotinylated phosphopeptides immobilised on streptavidin chip (about 25 RU single motifs); soluble recombinant protein injected in two-fold dilutions; 37°C; HBS-EP (10 mM HEPES pH 7.4, 150 mM NaCl, 3.4 mM EDTA, 0.005% P20); equilibrium binding, one-site model; proteins purified on the same day as SPR (Tables 1 and 6).

Experiment [7] concerns the target T3, SHP-2 N-terminal + C-terminal (N+C) SH2 …. The experiment can be described thus: SPR; biotinylated tandem phosphopeptides immobilised on streptavidin chip; SHP-2 N+C SH2 injected; 25°C; HBS-EP; equilibrium binding (Table 4).
Experiment [8] addresses T6, SAP (recombinant full-length human SAP) (human, UniProt O60880 1-128).
T6 construct: SAP, human, full length; also called SH2D1A; source: E. coli BL21(DE3)pLysS, purified (Co2+ or Ni2+ column, size exclusion chromatography)
T6 sequence (looked up): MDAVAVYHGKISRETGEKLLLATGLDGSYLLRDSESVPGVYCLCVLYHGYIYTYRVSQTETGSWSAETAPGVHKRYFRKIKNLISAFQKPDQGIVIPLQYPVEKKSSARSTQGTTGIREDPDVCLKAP
The experiment can be described thus: SPR; biotinylated phosphopeptides immobilised on streptavidin chip (about 25 RU single motifs); soluble recombinant protein injected in two-fold dilutions; 37°C; HBS-EP (10 mM HEPES pH 7.4, 150 mM NaCl, 3.4 mM EDTA, 0.005% P20); equilibrium binding, one-site model; proteins purified on the same day as SPR (Tables 1 and 6).

Non-standard residues stand in square brackets, D forms with d. No end group written: not given here. *: point of attachment. Biotin = O=C1N[C@H]2[C@H](CS[C@H]2CCCCC(=O)*)N1; pY = N[C@@H](Cc1ccc(OP(=O)(O)O)cc1)C(=O)O

What is called Kd is the constant that tells how readily two partners part at equilibrium.

B1: EAT-2 Y127 phosphopeptide (Biotin-NSNSDpYVDVLP) (peptide)
peptide: Biotin-NSNSD[pY]VDVLP
notes: EAT-2, human, tail with the conserved tyrosine motif Y127; also called EAT-2 pY127; EAT-2 tail phosphopeptide; source: synthetic peptide (Peptide Protein Research Ltd)
On to B1, for which the Kd in experiment [1] stood at 30 nM; in experiment [2], 10 nM.

B2: CD244 ITSM1,ITSM2 (equimolar mixture of single ITSM on chip) (other)
chain 1: Biotin-EFLTI[pY]EDVKD
chain 2: Biotin-GGSTI[pY]SMIQS
modifications: also: equimolar mixture of two separate peptides
Consider B2, for which the Kd in experiment [3] is 22000 nM.

B3: LAT Y132 phosphopeptide (Biotin-HNPGpYLVVLPD) (peptide)
peptide: Biotin-HNPG[pY]LVVLPD
notes: LAT, human, stretch around Y132; also called LAT pY132; source: synthetic peptide (Peptide Protein Research Ltd)
For B3, the Kd in experiment [1] and in experiment [2] was 20 nM in each case.

B4: CD244 ITSM1 phosphopeptide (Biotin-EFLTIpYEDVKD) (peptide)
peptide: Biotin-EFLTI[pY]EDVKD
notes: CD244 (SLAMF4), human, cytoplasmic ITSM1; also called SLAMF4 ITSM1; source: synthetic peptide (Peptide Protein Research Ltd)
Take B4: the Kd is 11000 nM in experiment [4]; 29000 nM in experiment [3]; 60 nM in experiment [5]; 20 nM in experiment [6]; 210 nM in experiment [1]; 800 nM in experiment [2].

In the case of EDTLTYADLDMVHLNRTPKQPAPKPEPSFSEYASVQV (also: phosphorylated, sites not given here, biotinylated, site not given here) [SIRPα ITIM3+ITIM4 tandem phosphopeptide], the Kd in experiment [7] worked out at 6400 nM.

B5: CRACC ITSM2 phosphopeptide (Biotin-PANTVpYSTVEI) (peptide)
peptide: Biotin-PANTV[pY]STVEI
notes: CRACC (SLAMF7), human, cytoplasmic ITSM2; also called SLAMF7 ITSM2; source: synthetic peptide (Peptide Protein Research Ltd)
For B5, the values for the Kd in experiment [8] and in experiment [6] were 440 nM and 3 nM, respectively.

B6: CD244 ITSM1+ITSM2 tandem phosphopeptide (peptide)
peptide: Biotin-EFLTI[pY]EDVKDLKTRRNHEQEQTFPGGGSTI[pY]SMIQS
notes: CD244 (SLAMF4), human, cytoplasmic stretch with ITSM1 and ITSM2; also called tandem ITSM peptide; source: synthetic peptide (Peptide Protein Research Ltd)
B6: the results for the dissociation constant (Kd) in experiment [3] and in experiment [7] were 2200 nM and 1400 nM, respectively.

For ENTITYSLLMH (also: phosphorylated, site not given here, biotinylated, site not given here) [FCRγIIb (CD32) phosphopeptide], in experiment [4], the Kd came to 470 nM.

B7: SIRPα ITIM1+ITIM2 tandem phosphopeptide (peptide)
peptide: Biotin-TNDIT[pY]ADLNLPKGKKPAPQAAEPNNHTE[pY]ASIQT
notes: SIRPα, human, cytoplasmic stretch with ITIM1 and ITIM2; source: synthetic peptide (Peptide Protein Research Ltd)
Take B7: the Kd in experiment [3] worked out at 1000 nM; in experiment [7], 500 nM.

B8: CD244 ITSM3+ITSM4 tandem phosphopeptide (peptide)
peptide: Biotin-PAYTL[pY]SLIQPSRKSGSRKRNHSPSFNSTI[pY]EVIGK
notes: CD244 (SLAMF4), human, cytoplasmic stretch with ITSM3 and ITSM4; source: synthetic peptide (Peptide Protein Research Ltd)
For B8, the figures for the Kd in experiment [3] and in experiment [7] were 10000 nM and 7400 nM, respectively.
